Assay results published in the supplement of paper PMC7125110.
± gives the standard error. For some assays here: This sample holds only a part of the variants without activity.

B1: glmS ribozyme (parent)
chain: AUAAAAGCGCCAGAACUACAGAAAUGUAGUUGACGAGGAGGAGGUUUAUCGAAUUUUCGGCGGAUGCCUCCAAA

What was measured:
Conditions in all cases: with glucosamine-6-phosphate
glucosamine-6-phosphate [1] = variants of: B1; test: kcat; higher = faster cleavage; RNA array
Method in brief: (§1)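 kobs was derived by fitting per-tile medians to one- or two-exponential decays after normalising signals to baseline and to non-cleaving reference variants. Those signals came from barcoded ribozyme variants transcribed in situ by E. coli RNA polymerase on sequenced MiSeq chips, followed through a hybridised Cy3 probe at 37 °C and imaged over ~14 h. Glucosamine-6-phosphate (40 μM to 10 mM) in HEPES/KCl/Mg(OAc)2 buffer was flowed in. Weighted Michaelis–Menten fits across concentrations then gave kcat and KM.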

glucosamine-6-phosphate [2] = variants of: B1; test: self-cleavage kobs at 640 uM GlcN6P; higher = faster cleavage; RNA array
Method in brief: as §1

glucosamine-6-phosphate [3] = variants of: B1; test: self-cleavage kobs at 2500 uM GlcN6P; higher = faster cleavage; RNA array
Method in brief: as §1

glucosamine-6-phosphate [4] = variants of: B1; test: self-cleavage kobs at 10000 uM GlcN6P; higher = faster cleavage; RNA array
Method in brief: as §1

glucosamine-6-phosphate [5] = variants of: B1; test: self-cleavage kobs at 40 uM GlcN6P; higher = faster cleavage; RNA array
Method in brief: as §1

glucosamine-6-phosphate [6] = variants of: B1; test: KM; higher = weaker cofactor use; RNA array
Method in brief: as §1

glucosamine-6-phosphate [7] = variants of: B1; test: self-cleavage kobs at 160 uM GlcN6P; higher = faster cleavage; RNA array
Method in brief: as §1

| Variant | kcat (glucosamine-6-phosphate [1]) | self-cleavage kobs at 640 uM GlcN6P (glucosamine-6-phosphate [2]) | self-cleavage kobs at 2500 uM GlcN6P (glucosamine-6-phosphate [3]) | self-cleavage kobs at 10000 uM GlcN6P (glucosamine-6-phosphate [4]) | self-cleavage kobs at 40 uM GlcN6P (glucosamine-6-phosphate [5]) | KM (glucosamine-6-phosphate [6]) | self-cleavage kobs at 160 uM GlcN6P (glucosamine-6-phosphate [7]) |
| --- | --- | --- | --- | --- | --- | --- | --- |
| A14C C58G | 0.000165 ± 6.6e-05 s⁻¹ | 3.92e-05 ± 1e-05 s⁻¹ | 4.23e-05 ± 8.3e-06 s⁻¹ | 0.000108 ± 1.2e-05 s⁻¹ |  |  |  |
| G59U C70A | 1.64e-05 ± 5.5e-06 s⁻¹ |  |  |  |  |  |  |
| C58U C67A | 3.03e-05 ± 4.9e-06 s⁻¹ |  |  | 3.07e-05 ± 7.8e-06 s⁻¹ | < 1e-05 s⁻¹ |  |  |
| G66U C71G | 8.21e-05 ± 2.6e-06 s⁻¹ |  | 4.34e-05 ± 1.2e-05 s⁻¹ | 6.65e-05 ± 1.1e-05 s⁻¹ |  | 2320 ± 240 µM |  |
| A14U C58G | 0.000104 ± 9.8e-06 s⁻¹ | 3.48e-05 ± 1.2e-05 s⁻¹ | 4.98e-05 ± 1.1e-05 s⁻¹ | 8.81e-05 ± 7.2e-06 s⁻¹ |  | 1960 ± 710 µM |  |
| U55C A64U | 5.99e-05 ± 7.9e-06 s⁻¹ |  | 4.69e-05 ± 8e-06 s⁻¹ | 5.2e-05 ± 5.7e-06 s⁻¹ |  |  |  |
| G38C C50U | < 1e-05 s⁻¹ | < 1e-05 s⁻¹ |  | < 1e-05 s⁻¹ |  |  | < 1e-05 s⁻¹ |
| C16A U47A | 0.000851 ± 0.00014 s⁻¹ | 0.000544 ± 0.00013 s⁻¹ | 0.000553 ± 0.00011 s⁻¹ | 0.000758 ± 0.00011 s⁻¹ |  | 1150 ± 410 µM | 9.46e-05 ± 2.7e-05 s⁻¹ |
| A33U U54C | 0.000118 ± 8e-06 s⁻¹ |  | 5.23e-05 ± 2e-05 s⁻¹ | 9.17e-05 ± 1.1e-05 s⁻¹ |  | 2880 ± 720 µM | < 1e-05 s⁻¹ |
| C11G C68G | 2.12e-05 ± 7.1e-06 s⁻¹ |  |  |  |  |  |  |
| A52U C67G | 0.000281 ± 3.9e-05 s⁻¹ | 6.34e-05 ± 7.8e-06 s⁻¹ | 0.000118 ± 1.4e-05 s⁻¹ | 0.000235 ± 2e-05 s⁻¹ |  | 2620 ± 740 µM |  |
| A42U C50G | < 1e-05 s⁻¹ |  |  | < 1e-05 s⁻¹ | < 1e-05 s⁻¹ |  |  |
| U65A C67G | 0.000463 ± 7.8e-05 s⁻¹ | 0.000173 ± 2.2e-05 s⁻¹ | 0.000422 ± 6.2e-05 s⁻¹ | 0.000386 ± 6.4e-05 s⁻¹ | 2.9e-05 ± 8.7e-06 s⁻¹ | 958 ± 270 µM | 6.44e-05 ± 9.1e-06 s⁻¹ |
| A39U C70A | 0.000394 ± 9.4e-05 s⁻¹ | 0.000187 ± 2.3e-05 s⁻¹ | 0.000403 ± 6.9e-05 s⁻¹ | 0.000382 ± 5.4e-05 s⁻¹ | 5.15e-05 ± 9.3e-06 s⁻¹ | 558 ± 250 µM | 7.96e-05 ± 1.2e-05 s⁻¹ |
| G44A C67A | 0.0103 ± 0.0048 s⁻¹ | 0.00141 ± 0.00018 s⁻¹ | 0.00541 ± 0.00076 s⁻¹ | 0.00737 ± 0.0013 s⁻¹ | 0.00024 ± 4e-05 s⁻¹ |  | 0.000422 ± 0.00011 s⁻¹ |
| A42G U57C | 0.000292 ± 1.6e-05 s⁻¹ | 6.98e-05 ± 2e-05 s⁻¹ | 0.000145 ± 2.7e-05 s⁻¹ | 0.000242 ± 3.4e-05 s⁻¹ |  | 2270 ± 300 µM |  |
| U31C U47G | 0.000887 ± 0.00023 s⁻¹ | 0.000292 ± 4.5e-05 s⁻¹ | 0.000426 ± 7e-05 s⁻¹ | 0.00102 ± 0.00013 s⁻¹ | 3.36e-05 ± 9.1e-06 s⁻¹ | 1440 ± 640 µM | 8.85e-05 ± 1.5e-05 s⁻¹ |

| Variant | kcat (glucosamine-6-phosphate [1]) | self-cleavage kobs at 640 uM GlcN6P (glucosamine-6-phosphate [2]) | self-cleavage kobs at 2500 uM GlcN6P (glucosamine-6-phosphate [3]) | self-cleavage kobs at 10000 uM GlcN6P (glucosamine-6-phosphate [4]) | self-cleavage kobs at 40 uM GlcN6P (glucosamine-6-phosphate [5]) | KM (glucosamine-6-phosphate [6]) | self-cleavage kobs at 160 uM GlcN6P (glucosamine-6-phosphate [7]) |
| --- | --- | --- | --- | --- | --- | --- | --- |
| C50U C68G | 4.93e-05 ± 1.9e-05 s⁻¹ | 6.55e-05 ± 1.1e-05 s⁻¹ | 7.89e-05 ± 1.4e-05 s⁻¹ |  |  |  | 3.88e-05 ± 1.6e-05 s⁻¹ |
| U30A U31G | 0.0198 ± 0.0021 s⁻¹ | 0.00508 ± 0.0011 s⁻¹ | 0.00933 ± 0.0019 s⁻¹ | 0.0178 ± 0.003 s⁻¹ | 0.000379 ± 4.9e-05 s⁻¹ | 2040 ± 290 µM | 0.00148 ± 0.00031 s⁻¹ |
| G51U C61A | < 1e-05 s⁻¹ |  |  | < 1e-05 s⁻¹ | < 1e-05 s⁻¹ |  | < 1e-05 s⁻¹ |
| A12U C58G | 0.0011 ± 0.00023 s⁻¹ | 0.000109 ± 1.2e-05 s⁻¹ | 0.000287 ± 3e-05 s⁻¹ | 0.000677 ± 6.4e-05 s⁻¹ |  | 6470 ± 2000 µM | 2.07e-05 ± 6e-06 s⁻¹ |
| C58A A64G | 0.000405 ± 6.2e-05 s⁻¹ | 0.0001 ± 1.5e-05 s⁻¹ | 0.000214 ± 2.8e-05 s⁻¹ | 0.000399 ± 8.1e-05 s⁻¹ |  | 1920 ± 510 µM | 3.91e-05 ± 1.1e-05 s⁻¹ |
| A12U G40A C71U | 0.101 ± 0.05 s⁻¹ | 0.0194 ± 0.007 s⁻¹ |  | 0.116 ± 0.047 s⁻¹ | 0.00209 ± 0.0003 s⁻¹ |  |  |
| A39U C50A | 1.72e-05 ± 1.5e-06 s⁻¹ |  |  |  |  |  | < 1e-05 s⁻¹ |
| A12U U55C | 0.0176 ± 0.0056 s⁻¹ | 0.0204 ± 0.0053 s⁻¹ | 0.0186 ± 0.0045 s⁻¹ | 0.0162 ± 0.0029 s⁻¹ | 0.0016 ± 0.00016 s⁻¹ | 464 ± 200 µM | 0.00304 ± 0.00062 s⁻¹ |
| U55C U57C | 9.84e-05 ± 1.9e-05 s⁻¹ |  | 8.25e-05 ± 1.9e-05 s⁻¹ | 8.27e-05 ± 1.2e-05 s⁻¹ |  |  |  |
| U30C G66A C67U | 6.3e-05 ± 4e-06 s⁻¹ |  | 2.96e-05 ± 1.2e-05 s⁻¹ | 4.86e-05 ± 1e-05 s⁻¹ |  | 2940 ± 580 µM |  |
| A36G | 2.12e-05 ± 2.6e-06 s⁻¹ |  | 1.72e-05 ± 3e-06 s⁻¹ | 1.89e-05 ± 1.4e-06 s⁻¹ |  |  |  |
| U30A C50A A52G | < 1e-05 s⁻¹ | < 1e-05 s⁻¹ |  | < 1e-05 s⁻¹ |  | 39.4 ± 20 µM |  |
| U65A U69A | 7.76e-05 ± 5.6e-06 s⁻¹ | 6.97e-05 ± 1.3e-05 s⁻¹ | 7.08e-05 ± 1.2e-05 s⁻¹ |  |  | 134 ± 50 µM | 4.06e-05 ± 1.5e-05 s⁻¹ |
| C10U A33U | 4.38e-05 ± 4e-06 s⁻¹ |  | 4.07e-05 ± 1.2e-05 s⁻¹ | 3.99e-05 ± 6.2e-06 s⁻¹ | < 1e-05 s⁻¹ |  |  |
| A15C C70A C71A | 3.7e-05 ± 3.6e-06 s⁻¹ |  |  |  |  | 98.6 ± 41 µM |  |
| G32U A36C | < 1e-05 s⁻¹ |  | < 1e-05 s⁻¹ | < 1e-05 s⁻¹ |  |  |  |
| C16G U57G | 2.25e-05 ± 2.8e-06 s⁻¹ |  |  |  | < 1e-05 s⁻¹ |  |  |
